The target in one assay is T1, neddylated CUL1–RBX1 (human, UniProt Q13616 1-776; P62877 5-108; Q15843 1-76, NEDD8 covalently linked to a conserved cullin lysine (WHB domain) | C terminus covalently linked to the cullin lysine).
T1 construct: CUL1, human, wild type; RBX1, human, residues 5 to C terminus; NEDD8, human; purified as previously described; also called NEDD8–CUL1–RBX1; neddylated CRL1 core; source: High Five insect cells (baculovirus), co-expressed, purified (GST-sepharose, TEV cleavage, ion exchange, SEC); neddylated as previously described; not shown: GST, N-terminal, cleaved; copies: + +
T1 sequence (Q13616 whole entry, chain 1 of 3, the tested form may be a part): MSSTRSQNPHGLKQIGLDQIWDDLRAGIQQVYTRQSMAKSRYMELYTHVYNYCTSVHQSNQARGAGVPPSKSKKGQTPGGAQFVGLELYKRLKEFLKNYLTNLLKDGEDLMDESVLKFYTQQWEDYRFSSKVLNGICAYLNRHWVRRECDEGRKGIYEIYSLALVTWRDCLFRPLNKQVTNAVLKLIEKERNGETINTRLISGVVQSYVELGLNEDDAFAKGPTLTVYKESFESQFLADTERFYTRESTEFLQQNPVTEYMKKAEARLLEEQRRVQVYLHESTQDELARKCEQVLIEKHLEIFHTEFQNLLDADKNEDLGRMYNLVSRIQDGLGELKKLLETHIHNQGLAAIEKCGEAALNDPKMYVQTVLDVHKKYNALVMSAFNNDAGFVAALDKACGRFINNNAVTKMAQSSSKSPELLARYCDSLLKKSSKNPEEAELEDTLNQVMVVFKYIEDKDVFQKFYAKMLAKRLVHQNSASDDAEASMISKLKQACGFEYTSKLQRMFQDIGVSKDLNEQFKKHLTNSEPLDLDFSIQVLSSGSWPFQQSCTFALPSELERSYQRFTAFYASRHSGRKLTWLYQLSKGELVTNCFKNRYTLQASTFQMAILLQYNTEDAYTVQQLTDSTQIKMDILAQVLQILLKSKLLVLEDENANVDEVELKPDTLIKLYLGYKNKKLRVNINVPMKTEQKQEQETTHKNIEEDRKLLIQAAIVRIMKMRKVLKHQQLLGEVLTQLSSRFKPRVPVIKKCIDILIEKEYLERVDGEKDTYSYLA
T1 sequence (P62877 5-108, chain 2 of 3): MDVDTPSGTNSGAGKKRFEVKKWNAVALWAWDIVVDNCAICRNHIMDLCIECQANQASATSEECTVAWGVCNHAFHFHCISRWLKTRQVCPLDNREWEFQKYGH
T1 sequence (Q15843 1-76, chain 3 of 3): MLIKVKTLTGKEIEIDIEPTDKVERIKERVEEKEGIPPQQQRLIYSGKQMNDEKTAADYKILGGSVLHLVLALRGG
Kind of assay: cryo-EM structure; trapped chain formation complex: neddylated CUL1–RBX1, SKP1–FBXW7, K48C ubiquitin–cyclin E phosphopeptide, donor ubiquitin(1–75), UBE2R2; SEC-purified; 8.1 Å map, rigid-body fits. Conditions: both partners purified.

Assay [1] has as its target T2, His-ubiquitin(1–75)–BmDPA (human, UniProt P0CG48 1-75, C terminus (residue 75) conjugated to (E)-3-[2-(bromomethyl)-1,3-dioxolan-2-yl]prop-2-en-1-amine (BmDPA), cross-linked to Cys48 of the acceptor ubiquitin and to the UBE2R2 active site cysteine).
T2 construct: ubiquitin, human, residues 1–75; also called UBD; donor ubiquitin
Kind of assay: cryo-EM structure; trapped chain formation complex: neddylated CUL2–RBX1, Elongin B/C–VHL, PROTAC MZ1, K48C ubiquitin–BRD4 (352–460), donor ubiquitin(1–75), UBE2R2; SEC-purified; 7.5 Å map, rigid-body fits. Conditions: both partners purified.

B1: UBE2R2 (enzyme, human, UniProt Q712K3 1-238, looked up)
chain: MAQQQMTSSQKALMLELKSLQEEPVEGFRITLVDESDLYNWEVAIFGPPNTLYEGGYFKAHIKFPIDYPYSPPTFRFLTKMWHPNIYENGDVCISILHPPVDDPQSGELPSERWNPTQNVRTILLSVISLLNEPNTFSPANVDASVMFRKWRDSKGKDKEYAEIIRKQVSATKAEAEKDGVKVPTTLAEYCIKTKVPSNDNSSDLLYDDLYDDDIDDEDEEEEDADCYDDDDSGNEES
notes: UBE2R2, human, wild type; In the trapped cryo-EM complexes the active site Cys93 is cross-linked to the BmDPA ligation mimic; in the di-ubiquitin synthesis assays it is thioesterified to 32P-labelled donor ubiquitin; also called WT (R2); UBE2R2 FL; source: E. coli Rosetta (DE3), purified (nickel-agarose or GST-sepharose, TEV, SEC); not shown: GST or 6xHis (either), N-terminal, cleaved
Take B1: the binding result (in the assay with neddylated CUL1–RBX1; in assay [1]) was “binds” each time.

(Values after publication PMC10873206 (Nature Structural & Molecular Biology, 2024).)
